Source: patent US20250188176A1

Target: canine IL-4RA (construct not given) (canine)
Assay: SPR, IL-4RA immobilised, periplasmic Fab

Row | Improvement over parental [fold] | RU max [RU] | koff [s⁻¹] | Binder
1 | 5.4 | 509 | 5.23e-05 | FJ2246MP07H09 (Fab, V domains shown) VH: EVQLVESGGDLVKPGGSLRLSCVASGFTFRDYAMTWVRQAPGKGLQWVSLINGSGGKTYYADAVKGRFTISRDNAKNTLYLQMNSLRAEDTAVYYCAVDRLTKTIRPQYYGLWSWGQGTLVTVSS VL: DIVMTQTPLSLSVSPGETASISCRSSQSLLYSIGYNYLDWYLQKPGQSPQGLIYLGSKRASGVPDRFSGSGSGTDFTLRISRVEANDTGVYYCMQGLQSPLTFGQGTKLEIKR
2 | 4.2 | 252 | 6.73e-05 | FJ2246MP07A09 (Fab, V domains shown) VH: EVQLVESGGDLVKPGGSLRLSCVASGFTFRDYAMTWVRQAPGKGLQWVSLINGSGGKTYYADAVKGRFTISRDNAKNTLYLQMNSLRAEDTAVYYCAVDRLTKTIRPQYYGMWSWGQGTLVTVSS VL: DIVMTQTPLSLSVSPGETASISCRSSQSLLYSIGYNYLDWYLQKPGQSPQGLIYLGSKRASGVPDRFSGSGSGTDFTLRISRVEANDTGVYYCMQGLQSPLTFGQGTKLEIKR
3 | 3.7 | 568 | 7.5e-05 | FJ2246MP06H07 (Fab, V domains shown) VH: EVQLVESGGDLVKPGGSLRLSCVASGFTFRDYAMTWVRQAPGKGLQWVSLINGTGGKTYYADAVKGRFTISRDNAKNTLYLQMNSLRAEDTAVYYCAVDRLTKTIRPQYYGLWAWGQGTLVTVSS VL: DIVMTQTPLSLSVSPGETASISCRSSQSLLYSIGYNYLDWYLQKPGQSPQGLIYLGSKRASGVPDRFSGSGSGTDFTLRISRVEANDTGVYYCMQGLQSPLTFGQGTKLEIKR
4 | 2.8 | 261 | 9.9e-05 | FJ2246MP10H11 (Fab, V domains shown) VH: EVQLVESGGDLVKPGGSLRLSCVASGFTFRDYAMTWVRQAPGKGLQWVSLISGSGGKTYYADAVKGRFTISRDNAKNTLYLQMNSLRAEDTAVYYCAVDRLTKTIRPQYYGLWVWGQGTLVTVSS VL: DIVMTQTPLSLSVSPGETASISCRSSQSLLYSIGYNYLDWYLQKPGQSPQGLIYLGSKRASGVPDRFSGSGSGTDFTLRISRVEANDTGVYYCMQGLHSPLSFGQGTKLEIK
5 | 2.6 | 225 | 0.000106 | FJ2246MP06H01 (Fab, V domains shown) VH: EVQLVESGGDLVKPGGSLRLSCVASGFTFRDYAMTWVRQAPGKGLQWVSLINGDASKTYYADAVKGRFTISRDNAKNTLYLQMNSLRAEDTAVYYCAVDRLTKTIRPQYYGLWVWGQGTLVTVSS VL: DIVMTQTPLSLSVSPGETASISCRSSQSLLYSIGYNYLDWYLQKPGQSPQGLIYLGSKRASGVPDRFSGSGSGTDFTLRISRVEANDTGVYYCMQGLQSPLTFGQGTKLEIKR
6 | 3.1 | 292 | 9.16e-05 | FJ2246MP10F04 (Fab, V domains shown) VH: EVQLVESGGDLVKPGGSLRLSCVASGFTFRDYAMTWVRQAPGKGLQWVSLISGSGGKTYYADAVKGRFTISRDNAKNTLYLQMNSLRAEDTAVYYCAVDRLTKTIRPQYYGLWVWGQGTLVTVSS VL: DIVMTQTPLSLSVSPGETASISCRSSKSLLYSIGYNYLDWYLQKPGQSPQGLIYLGSKRASGVPDRFSGSGSGTDFTLRISRVEADDTGVYYCMQGLHSPLTFGQGTKLEIK
7 | 2.5 | 372 | 0.000111 | FJ2246MP10G07 (Fab, V domains shown) VH: EVQLVESGGDLVKPGGSLRLSCVASGFTFRDYAMTWVRQAPGKGLQWVSLISGSGGKTYYADAVKGRFTISRDNAKNTLYLQMNSLRAEDTAVYYCAVDRLTKTIRPQYYGLWVWGQGTLVTVSS VL: DIVMTQTPLSLSVSPGETASISCRSSQSLLYSIGYNYLDWYLQKPGQSPQGLIYLGSKRASGVPDRFSGSGSGTDFTLRISRVEADDTGVYYCMQGLHSPLTFGQGTKLEIK
8 | 3.4 | 614 | 8.18e-05 | FJ2246MP07A10 (Fab, V domains shown) VH: EVQLVESGGDLVKPGGSLRLSCVASGFTFRDYAMTWVRQAPGKGLQWVSLINGSGGKTYYADAVKGRFTISRDNAKNTLYLQMNSLRAEDTAVYYCAVDRLTKTVRPQYYGLWSWGQGTLVTVSS VL: DIVMTQTPLSLSVSPGETASISCRSSQSLLYSIGYNYLDWYLQKPGQSPQGLIYLGSKRASGVPDRFSGSGSGTDFTLRISRVEANDTGVYYCMQGLQSPLTFGQGTKLEIKR
9 | 3 | 304 | 9.41e-05 | FJ2246MP10B12 (Fab, V domains shown) VH: EVQLVESGGDLVKPGGSLRLSCVASGFTFRDYAMTWVRQAPGKGLQWVSLISGSGGKTYYADAVKGRFTISRDNAKNTLYLQMNSLRAEDTAVYYCAVDRLTKTIRPQYYGLWVWGQGTLVTVSS VL: DIVMTQTPLSLSVSPGETASISCRSSQSLLYSIGYNYLDWYLQKPGQSPQGLIYLGSKRASGVPDRFSGSGNGTDFTLRISRVEAEDTGVYYCMQGLHSPLSFGQGTKLEIK
10 | 3.1 | 437 | 8.91e-05 | FJ2246MP10A09 (Fab, V domains shown) VH: EVQLVESGGDLVKPGGSLRLSCVASGFTFRDYAMTWVRQAPGKGLQWVSLISGSGGKTYYADAVKGRFTISRDNAKNTLYLQMNSLRAEDTAVYYCAVDRLTKTIRPQYYGLWVWGQGTLVTVSS VL: DIVMTQTPLSLSVSPGETASISCRSSQSLLYSIGYNYLDWYLQKPGQSPQGLIYLGSKRASGVPDRFSGSGSGTDFTLRISRVEAEDTGVYYCMQGLHSPLSFGQGTKLEIK

Second part, the binder before the results:

Row | Binder | Improvement over parental [fold] | RU max [RU] | koff [s⁻¹]
11 | FJ2246MP06E01 (Fab, V domains shown) VH: EVQLVESGGDLVKPGGSLRLSCVASGFTFRDYAMTWVRQAPGKGLQWVSLINGSGGKTYYADAVKGRFTISRDNAKNTLYLQMNSLRAEDTAVYYCAVDRLTKTIRPQYYGLWVWGQGTLVTVSS VL: DIVMTQTPLSLSVSPGETASISCRSSQSLLYSIGYNYLDWYLQKPGQSPQGLIYLGSKRASGVPDRFSGSGSGTDFTLRISRVEANDTGVYYCMQGLQSPLTFGQGTKLEIKR | 2.4 | 152 | 0.000119
12 | FJ2246MP06C01 (Fab, V domains shown) VH: EVQLVESGGDLVKPGGSLRLSCVASGFTFRDYAMTWVRQAPGKGLQWVSLINGNGGKTYYADAVKGRFTISRDNAKNTLYLQMNSLRAEDTAVYYCAVDRLTKTIRPQYYGLWVWGQGTLVTVSS VL: DIVMTQTPLSLSVSPGETASISCRSSQSLLYSIGYNYLDWYLQKPGQSPQGLIYLGSKRASGVPDRFSGSGSGTDFTLRISRVEANDTGVYYCMQGLQSPLTFGQGTKLEIKR | 2.3 | 160 | 0.000122
13 | FJ2246MP05F12 (Fab, V domains shown) VH: EVQLVESGGDLVKPGGSLRLSCVASGFPFRDYAMTWVRQAPGKGLQWVSLINGSGGKTYYADAVKGRFTISRDNAKNTLYLQMNSLRAEDTAVYYCAVDRLTKTIRPQYYGLWVWGQGTLVTVSS VL: DIVMTQTPLSLSVSPGETASISCRSSQSLLYSIGYNYLDWYLQKPGQSPQGLIYLGSKRASGVPDRFSGSGSGTDFTLRISRVEANDTGVYYCMQGLQSPLTFGQGTKLEIKR | 3.2 | 208 | 8.83e-05
14 | FJ2246MP06E12 (Fab, V domains shown) VH: EVQLVESGGDLVKPGGSLRLSCVASGFTFRDYAMTWVRQAPGKGLQWVSLINGNGGKTYYADAVKGRFTISRDNAKNTLYLQMNSLRAEDTAVYYCAVDRLTKTIRPQYYGLWVWGQGTLVTVSS VL: DIVMTQTPLSLSVSPGETASISCRSSQSLLYSIGYNYLDWYLQKPGQSPQGLIYLGSKRASGVPDRFSGSGSGTDFTLRISRVEANDTGVYYCMQGLQSPLTFGQGTKLEIKR | 2.9 | 127 | 9.66e-05
15 | FJ2246MP06F01 (Fab, V domains shown) VH: EVQLVESGGDLVKPGGSLRLSCVASGFTFRDYAMTWVRQAPGKGLQWVSLINGSGTKTYYADAVKGRFTISRDNAKNTLYLQMNSLRAEDTAVYYCAVDRLTKTIRPQYYGLWVWGQGTLVTVSS VL: DIVMTQTPLSLSVSPGETASISCRSSQSLLYSIGYNYLDWYLQKPGQSPQGLIYLGSKRASGVPDRFSGSGSGTDFTLRISRVEANDTGVYYCMQGLQSPLTFGQGTKLEIKR | 2.5 | 199 | 0.000112
16 | FJ2246MP06G08 (Fab, V domains shown) VH: EVQLVESGGDLVKPGGSLRLSCVASGFTFRDYAMTWVRQAPGKGLQWVSLINGNGSKTYYADAVKGRFTISRDNAKNTLYLQMNSLRAEDTAVYYCAVDRLTKTIRPQYYGLWVWGQGTLVTVSS VL: DIVMTQTPLSLSVSPGETASISCRSSQSLLYSIGYNYLDWYLQKPGQSPQGLIYLGSKRASGVPDRFSGSGSGTDFTLRISRVEANDTGVYYCMQGLQSPLTFGQGTKLEIKR | 3.1 | 199 | 9.01e-05
17 | FJ2246MP06A09 (Fab, V domains shown) VH: EVQLVESGGDLVKPGGSLRLSCVASGFTFRDYAMTWVRQAPGKGLQWVSLINGNGSKTYYADAVKGRFTISRDNAKNTLYLQMNSLRAEDTAVYYCAVDRLTKTIRPQYYGLWVWGQGTLVTVSS VL: DIVMTQTPLSLSVSPGETASISCRSSQSLLYSIGYNYLDWYLQKPGQSPQGLIYLGSKRASGVPDRFSGSGSGTDFTLRISRVEANDTGVYYCMQGLQSPLTFGQGTKLEIKR | 2.6 | 152 | 0.000106
18 | FJ2246MP06D01 (Fab, V domains shown) VH: EVQLVESGGDLVKPGGSLRLSCVASGFPFRDYAMTWVRQAPGKGLQWVSLVNGSGSKTYYADAVKGRFTISRDNAKNTLYLQMNSLRAEDTAVYYCAVDRLTKTIRPQYYGLWVWGQGTLVTVSS VL: DIVMTQTPLSLSVSPGETASISCRSSQSLLYSIGYNYLDWYLQKPGQSPQGLIYLGSKRASGVPDRFSGSGSGTDFTLRISRVEANDTGVYYCMQGLQSPLTFGQGTKLEIKR | 3.6 | 323 | 7.72e-05
19 | FJ2246MP06D12 (Fab, V domains shown) VH: EVQLVESGGDLVKPGGSLRLSCVASGFTFRDYAMTWVRQAPGKGLQWVSLINGNSGKTYYADAVKGRFTISRDNAKNTLYLQMNSLRAEDTAVYYCAVDRLTKTIRPQYYGLWVWGQGTLVTVSS VL: DIVMTQTPLSLSVSPGETASISCRSSQSLLYSIGYNYLDWYLQKPGQSPQGLIYLGSKRASGVPDRFSGSGSGTDFTLRISRVEANDTGVYYCMQGLQSPLTFGQGTKLEIKR | 2.7 | 154 | 0.000102
